Results on 1 substance are retold here after patent US7553821B2, “Methods for selectively modulating survivin apoptosis pathways” (Yale University, priority 2000, dated 2009).

One test has as its target T1, Cdk2-cyclin E (Homo sapiens, UniProt P24941).
T1 construct: host or cells: baculovirus expression system
Description: In vitro kinase assay with Cdk2-cyclin E. The class given is biochemical. Particulars: recombinant protein as substrate, control experiment, autoradiography. Here is the method:
FIG. 1B. In vitro kinase assay. Wild type (WT) survivin, survivin(T34A) (T34A), or control (H1) were incubated with baculovirus-expressed p34^cdc2-cyclin B1 or cdk2-cyclin E in kinase buffer plus 10 μCi γ-^32P-ATP for 30 min at 30° C. Samples were separated by SDS gel electrophoresis and radioactive bands were visualized by autoradiography. Equal protein loading was confirmed by Coomassie blue staining of the gel.
(§1) Transfection experiments. For transient transfection, HeLa cells in C-6 tissue culture plates (Costar, Cambridge, Mass.) at ˜60-70% confluency, were incubated in 1 ml of serum-free OptiMEM medium (Life Technologies, Gaithersburg, Md.) for 20 min, and transfected with 2.5 μg of the various plasmid cDNAs plus 9 μl Lipofectamine (Life Technologies). After a 5 h incubation at 37° C., the mixture was aspirated and substituted with complete growth medium for 48-72 h. To generate stable YUSAC-2 transfectants, a survivin(T34A) cDNA was inserted into the HindIII-SpeI sites of the pTet-splice vector (Dr. D. Schatz, Yale University School of Medicine), downstream of the regulatory sequences of the Tet-resistance operon (TetO). […] Gated GFP-expressing cells were analyzed for DNA content by flow cytometry on a FACSort (Becton Dickinson, San Jose, Calif.) using a Cell Quest software. […]

In another test the test system is HeLa cells. Kind of test: Mitotic spindle immunofluorescence (tubulin) in transfected HeLa cells. As to conditions: tubulin labeling. The class given is cell-based. The method, then: HeLa cells transfected with wild type survivin (WT) or survivin(T34A) (T34A), were fixed in microtubule-stabilizing buffer (Li et al., 1998), and labeled with mAb 20C6 to […] -tubulin followed by FITC-conjugated goat anti-mouse IgG. Images were analyzed by confocal microscopy as described in FIG. 2C.
as §1, with “(TetO). YUSAC-2 cells were transfected with 0.8 μg pTet-T34A, 0.8 μg of the transactivation/selection plasmid ptTA-Neo and 5 μl Lipofectamine in 1 ml of OptiMem.” for “(TetO).”

For the next test, the target named is T2, p34^cdc2 (Homo sapiens, UniProt P06493).
T2 construct: immunoprecipitated with an antibody to HA, and immunoblotted with antibodies to p34^cdc2 or HA; endogenous in cells; host or cells: HeLa
Kind of test: Co-immunoprecipitation of survivin and p34cdc2 from HeLa cells. The class given is binding. Particulars: asynchronously growing transfected HeLa cells. Here is the method: The experimental procedures are the same as in A, except that asynchronously growing HeLa cells were transfected with HA-survivin or HA-survivin(T34A), immunoprecipitated with an antibody to HA, and immunoblotted with antibodies to p34^cdc2 or HA. W, whole HeLa cell extract.
as §1, with “(TetO). YUSAC-2 cells were transfected with 0.8 μg pTet-T34A, 0.8 μg of the transactivation/selection plasmid ptTA-Neo and 5 μl Lipofectamine in 1 ml of OptiMem.” for “(TetO).”

T2 sequence (P06493 whole entry): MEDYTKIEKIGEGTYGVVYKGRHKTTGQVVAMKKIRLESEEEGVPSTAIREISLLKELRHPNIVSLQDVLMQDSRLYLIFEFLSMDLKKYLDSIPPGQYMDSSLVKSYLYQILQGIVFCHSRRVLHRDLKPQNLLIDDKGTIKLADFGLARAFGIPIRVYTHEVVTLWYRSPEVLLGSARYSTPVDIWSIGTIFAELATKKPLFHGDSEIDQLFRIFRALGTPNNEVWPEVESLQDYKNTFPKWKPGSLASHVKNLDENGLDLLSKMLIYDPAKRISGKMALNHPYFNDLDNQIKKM

“survivin(T34A): dominant-negative, non-phosphorylatable survivin mutant with Thr34→Ala substitution, expressed from transfected cDNA (also HA- or GFP-tagged)”: in the test with Cdk2-cyclin E, the “phosphorylation by Cdk2-cyclin E” value is “did not phosphorylate”. Moreover, the mitotic spindle morphology result in the test on HeLa cells is “profound dysregulation of mitotic transitions”. In the test with p34^cdc2, the “p34^cdc2 in HA immunoprecipitates by Western blotting” value is on record as “contained a prominent p34^cdc2 band”.
